Assay results from IntAct's records for PubMed 17006541.

B1: DNA topoisomerase 2-binding protein 1 (Homo sapiens), Q92547 (parent)
chain: MSRNDKEPFFVKFLKSSDNSKCFFKALESIKEFQSEEYLQIITEEEALKIKENDRSLYICDPFSGVVFDHLKKLGCRIVGPQVVIFCMHHQRCVPRAEHPVYNMVMSDVTISCTSLEKEKREEVHKYVQMMGGRVYRDLNVSVTHLIAGEVGSKKYLVAANLKKPILLPSWIKTLWEKSQEKKITRYTDINMEDFKCPIFLGCIICVTGLCGLDRKEVQQLTVKHGGQYMGQLKMNECTHLIVQEPKGQKYECAKRWNVHCVTTQWFFDSIEKGFCQDESIYKTEPRPEAKTMPNSSTPTSQINTIDSRTLSDVSNISNINASCVSESICNSLNSKLEPTLENLENLDVSAFQAPEDLLDGCRIYLCGFSGRKLDKLRRLINSGGGVRFNQLNEDVTHVIVGDYDDELKQFWNKSAHRPHVVGAKWLLECFSKGYMLSEEPYIHANYQPVEIPVSHKPESKAALLKKKNSSFSKKDFAPSEKHEQADEDLLSQYENGSSTVVEAKTSEARPFNDSTHAEPLNDSTHISLQEENQSSVSHCVPDVSTITEEGLFSQKSFLVLGFSNENESNIANIIKENAGKIMSLLSRTVADYAVVPLLGCEVEATVGEVVTNTWLVTCIDYQTLFDPKSNPLFTPVPVMTGMTPLEDCVISFSQCAGAEKESLTFLANLLGASVQEYFVRKSNAKKGMFASTHLILKERGGSKYEAAKKWNLPAVTIAWLLETARTGKRADESHFLIENSTKEERSLETEITNGINLNSDTAEHPGTRLQTHRKTVVTPLDMNRFQSKAFRAVVSQHARQVAASPAVGQPLQKEPSLHLDTPSKFLSKDKLFKPSFDVKDALAALETPGRPSQQKRKPSTPLSEVIVKNLQLALANSSRNAVALSASPQLKEAQSEKEEAPKPLHKVVVCVSKKLSKKQSELNGIAASLGADYRWSFDETVTHFIYQGRPNDTNREYKSVKERGVHIVSEHWLLDCAQECKHLPESLYPHTYNPKMSLDISAVQDGRLCNSRLLSAVSSTKDDEPDPLILEENDVDNMATNNKESAPSNGSGKNDSKGVLTQTLEMRENFQKQLQEIMSATSIVKPQGQRTSLSRSGCNSASSTPDSTRSARSGRSRVLEALRQSRQTVPDVNTEPSQNEQIIWDDPTAREERARLASNLQWPSCPTQYSELQVDIQNLEDSPFQKPLHDSEIAKQAVCDPGNIRVTEAPKHPISEELETPIKDSHLIPTPQAPSIAFPLANPPVAPHPREKIITIEETHEELKKQYIFQLSSLNPQERIDYCHLIEKLGGLVIEKQCFDPTCTHIVVGHPLRNEKYLASVAAGKWVLHRSYLEACRTAGHFVQEEDYEWGSSSILDVLTGINVQQRRLALAAMRWRKKIQQRQESGIVEGAFSGWKVILHVDQSREAGFKRLLQSGGAKVLPGHSVPLFKEATHLFSDLNKLKPDDSGVNIAEAAAQNVYCLRTEYIADYLMQESPPHVENYCLPEAISFIQNNKELGTGLSQKRKAPTEKNKIKRPRVH

Columns and labels:
akt1_human AKT1, P31749 = variants of: B1; conditions: with akt1_human AKT1, P31749
akt1_human AKT1, P31749, sequence (P31749 whole entry): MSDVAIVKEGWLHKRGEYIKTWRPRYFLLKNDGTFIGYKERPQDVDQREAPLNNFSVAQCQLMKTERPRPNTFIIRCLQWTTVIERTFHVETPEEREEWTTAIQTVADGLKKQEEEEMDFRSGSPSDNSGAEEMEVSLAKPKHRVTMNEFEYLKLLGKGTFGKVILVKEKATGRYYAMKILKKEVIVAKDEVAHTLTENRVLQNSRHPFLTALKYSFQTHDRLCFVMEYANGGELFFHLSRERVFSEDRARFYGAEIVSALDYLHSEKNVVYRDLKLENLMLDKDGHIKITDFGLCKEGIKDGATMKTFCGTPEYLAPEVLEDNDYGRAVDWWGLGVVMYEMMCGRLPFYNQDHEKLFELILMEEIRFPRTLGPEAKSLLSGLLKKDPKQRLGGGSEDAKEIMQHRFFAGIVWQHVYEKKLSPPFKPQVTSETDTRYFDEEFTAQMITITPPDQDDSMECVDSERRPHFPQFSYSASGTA

[1] = variants of: B1; conditions: with pias2_human PIAS2, O75928
pias2_human PIAS2, O75928, sequence (O75928 whole entry): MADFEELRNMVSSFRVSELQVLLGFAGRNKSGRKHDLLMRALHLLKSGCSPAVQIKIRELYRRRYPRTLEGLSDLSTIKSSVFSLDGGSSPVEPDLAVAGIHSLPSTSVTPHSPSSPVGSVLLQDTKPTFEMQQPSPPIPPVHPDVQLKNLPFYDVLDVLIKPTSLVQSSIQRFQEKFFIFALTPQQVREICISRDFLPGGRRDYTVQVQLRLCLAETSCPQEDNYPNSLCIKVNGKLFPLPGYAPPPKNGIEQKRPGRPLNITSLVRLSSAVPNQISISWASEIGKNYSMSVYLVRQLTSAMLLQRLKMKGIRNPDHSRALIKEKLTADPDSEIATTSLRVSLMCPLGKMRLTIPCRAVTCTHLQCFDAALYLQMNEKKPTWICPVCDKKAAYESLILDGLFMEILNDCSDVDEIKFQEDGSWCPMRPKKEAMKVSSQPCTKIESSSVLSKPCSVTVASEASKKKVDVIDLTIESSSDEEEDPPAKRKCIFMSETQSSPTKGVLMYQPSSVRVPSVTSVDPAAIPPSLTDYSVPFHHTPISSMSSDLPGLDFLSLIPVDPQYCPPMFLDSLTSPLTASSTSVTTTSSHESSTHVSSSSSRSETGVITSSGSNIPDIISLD

e2f1_human E2F1, Q01094 = variants of: B1; conditions: with e2f1_human E2F1, Q01094
e2f1_human E2F1, Q01094, sequence (Q01094 whole entry): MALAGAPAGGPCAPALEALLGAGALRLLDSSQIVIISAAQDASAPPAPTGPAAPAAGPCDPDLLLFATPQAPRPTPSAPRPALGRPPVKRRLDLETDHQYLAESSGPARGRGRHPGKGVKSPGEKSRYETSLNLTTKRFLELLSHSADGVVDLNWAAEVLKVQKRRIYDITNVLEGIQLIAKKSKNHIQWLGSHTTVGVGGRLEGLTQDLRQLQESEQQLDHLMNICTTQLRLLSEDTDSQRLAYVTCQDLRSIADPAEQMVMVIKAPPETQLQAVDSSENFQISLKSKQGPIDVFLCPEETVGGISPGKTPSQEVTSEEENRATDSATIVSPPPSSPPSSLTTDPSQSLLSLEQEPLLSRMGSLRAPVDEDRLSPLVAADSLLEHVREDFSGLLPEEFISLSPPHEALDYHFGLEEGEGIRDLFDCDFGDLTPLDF

ve2_hpv16 E2, P03120 = variants of: B1; conditions: with ve2_hpv16 E2, P03120
ve2_hpv16 E2, P03120, sequence (P03120 whole entry): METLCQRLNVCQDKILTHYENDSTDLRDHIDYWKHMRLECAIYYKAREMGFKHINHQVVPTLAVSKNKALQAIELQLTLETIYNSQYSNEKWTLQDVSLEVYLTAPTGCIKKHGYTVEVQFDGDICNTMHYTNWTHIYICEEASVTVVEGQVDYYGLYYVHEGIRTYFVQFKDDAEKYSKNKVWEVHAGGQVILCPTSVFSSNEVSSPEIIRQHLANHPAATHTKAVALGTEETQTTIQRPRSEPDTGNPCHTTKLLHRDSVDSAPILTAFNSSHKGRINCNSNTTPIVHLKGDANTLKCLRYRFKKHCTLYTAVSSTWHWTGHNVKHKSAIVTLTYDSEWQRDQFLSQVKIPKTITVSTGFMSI

Variant | effect of a mutation on the interaction (akt1_human AKT1, P31749) | effect of a mutation on the interaction [1] | effect of a mutation on the interaction (e2f1_human E2F1, Q01094) | effect of a mutation on the interaction (ve2_hpv16 E2, P03120)
S1159A | disrupting interaction | decreasing interaction | disrupting interaction | decreasing interaction
S1159D |  |  | decreasing interaction | 
